Source: patent US20180072770A1, “Influenza Virus Binding Peptides” (priority 2014, published 2018)
No end group written: not given here.

Tests used:
[1] = molecular target: hemagglutinin of influenza A virus A/Mute swan/Germany/R901/06 K3141 H7N1 (influenza A virus A/Mute swan/Germany/R901/06 K3141 H7N1)
[2] = molecular target: hemagglutinin of influenza A virus A/Panama/2007/1999 H3N2 (influenza A virus A/Panama/2007/1999 H3N2); assay: cell-based or functional assay
[3] = molecular target: hemagglutinin of influenza A virus A/Mute swan/Germany/R901/06 K3141 H7N1 (influenza A virus A/Mute swan/Germany/R901/06 K3141 H7N1); assay: cell-based or functional assay

Binder: KKKKFYGYDVFF (not fully specified (C-terminus)) [peptide with SEQ ID NO:28, N-terminal (Lys)4, C-terminal amide]
- IC50 [1]: 30 µM
- Mean Ki(HAI), hemagglutination inhibition assay, human erythrocytes [2]: 0.1 µM
- Hemagglutination inhibition (IC50, HAI) [3]: 23 µM
- Mean Ki(HAI), hemagglutination inhibition assay, turkey erythrocytes [3]: 36.5 µM

Binder: KKKKFYDYDVFY (not fully specified (C-terminus)) [reference peptide with SEQ ID NO:1 (FYDYDVFY), N-terminal (Lys)4, C-terminal amide]
- IC50 [1]: 40 µM
- Mean Ki(HAI), hemagglutination inhibition assay, human erythrocytes [2]: 16 µM
- Hemagglutination inhibition (IC50, HAI) [3]: 47 µM
- Mean Ki(HAI), hemagglutination inhibition assay, turkey erythrocytes [3]: 62.5 µM
